Tests used:
Details in all cases: both partners purified
[1] = molecular target: T1, recombinant gH/gL/UL128/UL130/UL131A pentamer (wild type) (Human cytomegalovirus VR1814 (gH strain …, UniProt Q6SW67;F5HCH8;PDB)); experiment: SPR; Biacore X100, CM5 chip, RT, 1:1 binding model; methods: antibody (4 μg/mL) captured by anti-human Fc IgG to about 100 RU, pentamer or trimer in five 2-fold dilutions injected at 30 μL/min, 90 s association, 600 s dissociation (the legend of Fig. 5 tells the reverse orientation)
T1 construct: also called CMV pentamer; HCMV pentamer complex; source: HEK293F, cotransfected with gH, gL, UL128, UL130 and UL131A plasmids, purified (Ni-NTA, SEC); not shown: His6, C-terminal, kept; copies: + + + +
T1 sequence (F5HCH8 whole entry, looked up, chain 1 of 2): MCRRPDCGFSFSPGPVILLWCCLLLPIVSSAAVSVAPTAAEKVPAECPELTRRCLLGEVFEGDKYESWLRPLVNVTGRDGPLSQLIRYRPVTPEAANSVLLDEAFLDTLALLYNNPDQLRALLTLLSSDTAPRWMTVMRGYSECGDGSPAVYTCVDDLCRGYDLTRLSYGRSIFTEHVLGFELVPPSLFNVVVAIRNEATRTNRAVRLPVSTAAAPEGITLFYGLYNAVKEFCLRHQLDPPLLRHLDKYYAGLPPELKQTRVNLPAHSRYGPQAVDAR
T1 sequence (Q6SW67 whole entry, looked up, chain 2 of 2): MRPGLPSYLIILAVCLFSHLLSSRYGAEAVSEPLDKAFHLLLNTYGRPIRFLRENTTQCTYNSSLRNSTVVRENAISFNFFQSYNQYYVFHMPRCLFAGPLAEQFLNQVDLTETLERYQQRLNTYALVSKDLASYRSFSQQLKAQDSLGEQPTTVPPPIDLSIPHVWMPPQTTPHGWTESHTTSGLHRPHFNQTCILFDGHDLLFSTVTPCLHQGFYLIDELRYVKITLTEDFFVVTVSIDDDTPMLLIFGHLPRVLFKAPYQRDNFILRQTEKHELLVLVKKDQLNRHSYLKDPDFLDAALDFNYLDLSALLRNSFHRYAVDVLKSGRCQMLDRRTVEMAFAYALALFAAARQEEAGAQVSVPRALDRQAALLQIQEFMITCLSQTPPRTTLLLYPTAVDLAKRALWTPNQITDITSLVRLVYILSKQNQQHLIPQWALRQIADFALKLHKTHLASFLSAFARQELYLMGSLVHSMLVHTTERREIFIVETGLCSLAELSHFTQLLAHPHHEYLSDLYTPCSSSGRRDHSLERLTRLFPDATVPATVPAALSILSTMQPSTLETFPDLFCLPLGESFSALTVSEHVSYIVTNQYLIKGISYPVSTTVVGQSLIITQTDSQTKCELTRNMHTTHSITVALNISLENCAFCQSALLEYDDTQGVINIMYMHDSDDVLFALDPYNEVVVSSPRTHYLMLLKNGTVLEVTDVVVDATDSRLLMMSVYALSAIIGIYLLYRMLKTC

[2] = molecular target: T1, recombinant gH/gL/UL128/UL130/UL131A …; experiment: ELISA; pentamer, trimer or pentamer mutant coated at 100 ng/well (carbonate bicarbonate buffer pH 7.4, overnight 4°C); purified antibodies in eight serial 3-fold dilutions from 1 μg/mL, 37°C 1 h; detected with goat anti-human IgG (H+L)-HRP
[3] = molecular target: T2, recombinant gH/gL/UL128/UL130/UL131A pentamer (wild type) (Human cytomegalovirus VR1814 (gH strain …, UniProt Q6SW67;F5HCH8;PDB)); experiment: SPR; Biacore X100, CM5 chip, RT, 1:1 binding model; methods: antibody (4 μg/mL) captured by anti-human Fc IgG to about 100 RU, pentamer or trimer in five 2-fold dilutions injected at 30 μL/min, 90 s association, 600 s dissociation (the legend of Fig. 5 tells the reverse orientation); remark: listed apart in the source
T2 construct: also called CMV pentamer; HCMV pentamer complex; source: HEK293F, cotransfected with gH, gL, UL128, UL130 and UL131A plasmids, purified (Ni-NTA, SEC); not shown: His6, C-terminal, kept; copies: + + + +
T2 sequence (F5HCH8 whole entry, looked up, chain 1 of 2): as the sequence (F5HCH8 whole entry, looked up, chain 1 of 2) above
T2 sequence (Q6SW67 whole entry, looked up, chain 2 of 2): as the sequence (Q6SW67 whole entry, looked up, chain 2 of 2) above

[4] = molecular target: T2, recombinant gH/gL/UL128/UL130/UL131A …; experiment: as above; remark: listed apart in the source

B1: MAb MSL-109 (antibody, V domains shown)
VH: EEQVLESGGGLVKPGGSLRLSCAASGFTFSPYSVFWVRQAPGKGLEWVSSINSDSTYKYYADSVKGRFTISRDNAENSIFLQMNSLRAEDTAVYYCARDRSYYAFSSGSLSDYYYGLDVWGQGTLVTVSS
VL: DIVMTQSPLSLSVTPGEPASISCRSSQSLLHTNGYNYLDWYVQKPGQSPQLLIYLASNRASGVPDRFSGSGSGTDFTLKISRVETEDVGVYYCMQALQIPRTFGQGTKVEIK
notes: source: 293F cells, transient transfection, purified (protein A)
- Kd [1]: 1.33 nM
- koff [1]: 0.00156 s⁻¹
- kon [1]: 1.17e+06 M⁻¹ s⁻¹

B2: MAb 8I21 (antibody, V domains shown)
VH: LVELVESGGGVVQPGRSLRLSCAASGFTFSSDGMHWVRQSPGRGLEWVAFISSDGSTPYYADSVKGRFTISRDNSKNTLYLQMNSLRAEDTAMYFCAKDWALFRWLRTFDHWGQGTLVTVSS
VL: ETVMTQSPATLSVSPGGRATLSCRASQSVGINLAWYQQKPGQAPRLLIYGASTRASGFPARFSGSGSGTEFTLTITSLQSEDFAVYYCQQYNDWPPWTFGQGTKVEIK
notes: as for B1
- binding result [2]: binds

B3: MAb 9I6 (antibody, V domains shown)
VH: EVQLVQSGAEVKKPGESLKISCRESGDTFPAYWIAWVRQMPGKGLEWMGIIYPIDSETTYSPSFQGQVTISADKSINTAYLQWSSLKASDSAIYYCARGTSTGLREAFHIWGQGTMVTVSS
VL: DVVMTQSPLSLAVTLGQPAYISCRSSQSLGYSDGNTYLNWFQQRPGQSPRRLIYEVSNRDSGVPDRFSGSGSGTDFTLKISRVEAEDVGTYYCMQGTHWPPMCSFGQGTKLEIK
notes: as for B1
- Kd [3]: 0.484 nM
- Kd [4]: 0.82 nM
- koff [4]: 0.000139 s⁻¹
- kon [4]: 168000 M⁻¹ s⁻¹
